This is an account of results in the DeepSol protein solubility set.

A short description of the series: soluble on expression in E. coli; label from the status in PepcDB or PDB records.
Take “GPGSMMDCDHLLRLGMTAKKILENGKGILAADETPKTLGRRFEKLGITNTEENRRKFREILFSTKGIERYIGGVILNQETFEQTSGSGVPLTELLKKKGIEIGIKLDKGLIDYKEKEKISVGLEDLDLRCKSSAFKDATFAKWRSLFYFYDGIPSEDCINENCSILAKYAIICQKNGLVPIVEPEVFLEGDYSMKRSYEVTRQILSTLMKYLNYELVYIPGVLIKASYVTSGQLSNEKYTPKKVATFTLRALLSTIPCGIPGIVFLSGGHGSEDAIGFLNAINMERGCRTWSLSFSFARALTDGVLETWRGDDSNIEEAQKILLETSFKACRGAEGKLWDQE”: the “soluble on expression in E. coli” value was “soluble”. For “GPGSMMEPTRNAEYSKQEYWDRRYTEEEHYDWFPSVYPMCVAAAFETVEAVYRVQRSTGAFNGTLKVLHLGTGNSTLCADIRATYEAKYPTEDSRPYRLVQAATDYSAVVIDRMQAKYGLAHPLEDVHWVVADIRDLSRVREQFGPFFDVVLDKGTMDALQADKANQNMEDDIERMLCEVSRCVEGGAGTRVYRVFVQITWEIPYLRLYYTTRNATHTFAWGTNVTYRFLGESDMYRVYTYEVSPPSSE”, the “soluble on expression in E. coli” value was “soluble”. On to “GPGSMMGTDTEKGLYLHAAWDLFERLRPGQQLCVSFFEIYCNSLYDLLNHRHPIVLREDANRRVNICGVTWRTVATVEELWQLVRSGMEQRRTGTTTANEHSSRSHAVLSLRITDSENPDFTGSVNFVDLAGSERAADTAAHDRLTRLEGAEINKSLLALKECIRALDEKKKHVPFRGSRLTEVLRASFTGNSKTVMIAAVSPSSVNHEHTSNTLRYAFRVKGLSVPSVWPSTARNAPRLCLPVARSRSRAAAAVAAANEPTSAPAATECSFNSKHTDDAGSPRRPRHARRRRHAYKTAHEPQDEIGISDTNESCTSDTATESPRPRMQITQKACRHQVGRNSTGSSTSAKRHKTCCLVPYMVESLSQRRTRHRTRKERLPLPRAACSIGESSDLLLANASGTDSKSRALAEVILPHVKGATRHPSSLIAVDVAALEQRLTLQIIAQLRLDLGQQLEEVLMEKDTIISALRSENEKLRQALDKTGNVEQFYGGSPCDGEVQKRPAVLPALLYPSSPSILQEQLSSGVSTASVGDEPPLRVLSE”, for which the “soluble on expression in E. coli” value was “not soluble”. The same measure for “GPGSMMTEATTTPVETPIVCNIRDAAGLEGKLVTFKGWAYHIRKARKTLIFVELRDGSGYCQCVIFGKELCEPEKVKLLTRECSLEITGRLNAYAGKNHPPEIADILNLEMQVTEWKVIGESPIDLENIINKDSSIPQKMQNRHIVIRSEHTQQVLQLRSEIQWYFRKYYHDNHFTEIQPPTIVKTQCEGGSTLFKLQYFNEPAYLTQSSQLYLESVIASLGKSFCMLSSYRAEQSRTVRHLAEYLHLEAELPFISFEDLLNHLEDLVCTVIDNVMAVHGDKIRKMNPHLKLPTRPFKRMTYADAIKYCNDHGILNKDKPFEYGEDISEKPERQMTDEIGCPIFMIHFPSKMKAFYMSKVPGHPDLTESVDLLMPGVGEIVGGSMRIWNYDELMGAYKANGLNPDPYYWYTQQRKYGSCPHGGYGLGVERLVMWLLGEDHIRKVCLYPRYLERCEP”: “soluble”; for “GPGSMNHLAGKIHVVQTPEEGRRFSLEQVVLPVLGNGAERLVSPDGKMREASERLAQELQIEGLMKMKAAPPATYRRLVVRPRDFTYCLFDDERGWCWESNNEAPIRPQLWEDQEGIMRQLSPLSVATGKNIIARNGIRGAEQRSHFLKAARRSGMTCVLRMTLPRGSAVTSALREAFQFATLDPGVIFHLLR”: “not soluble”; for “GPGSMPPKKGKKLKKKVKLQVPPQYEEQISKEPVSDPPTSQQSITSLPISVVEAALAVEESPEEDIVTFGAEALNRLLSMRHPQQIAADLTRSLSSLRQRLAQLEMEWLGFESSAVGSTYACRARDQKDKLEHEVRKTEKMTRHLILLGRVLDRIFELRTSVFDTERTAMEAEVEELTKRVEKNDEEIRSCYINRISLLHRYWVWRTLQELGDMTVGRTFAEELARGPRYRSIAIQNRILSDTLERQLEWLQRFLEKEEVFCGRVRQLERFVEEFTDMNDALEEVLTCRVCNLLFEDPVVFWPCGHSFCLQCFDSLSVAPSLFRCPLCGSMGSEGYVHNLLLSESVAKWMFKDACYADVHGALSLVRLHLSKFRRNIISSRMEQLEERLTAERGRELASDTLDDMDIVYRAY”: “not soluble”. The same measure for “GPGSMRAEKVTVSPAGEGAAPLFVFGYGSILWKQQFEYLRALPCCVHGYKRVFYQGSTDHRGVPARPGRVVTLLTCGDPEAWVGGVAFELPVEEEKREKILAQLDDRESGGYEREEVTLYDIKTHERLHLPPGAVCLCYRATEDNPEYLGEAKDEAIAEQILSCEGLSGPNSEYLFKLAEALRKLESADQHVFAVETAALHIMKAQNVPE”: “soluble”.

As to “GPGSMRAVVFSDVASAELREHIRAIASTSYAEVVYVDVSESAEADLATAWHTRYGGASHSPPAARDELDDLKNTFVCYLTEQKTIEDSDVVYAVFVAEVHTLVLTPSVTLTPLMHATADGSVSARKAAIESFFSVAPSSSSAEVIVVEGGDGAGKETQTGLLVRRVHAAGDEVHALDFPNEKGLYGGLVRAVLSGKKGPISELNPQLFSFLYSLNRFGCARQLHFWLRRGSSVVLDRYYTANFGHQASKLPPEEREAFISDLEFMEVEWLGLPRATYVLYLDLPPAVALEAMRQDATRKQLDIHETAGSDYKERVRQTYRWCCEHLPGWHHIECFSDDGRRLTREEVHASITSHLRDAGSRAIGAPS”, the “soluble on expression in E. coli” value is “not soluble”. As for “GPGSMRCIGMMEELVAEGCSAIKSRHDKTNEELGDLRLQVHQEYLEAFRRLYKTLGQLVYKKEKRLEEIDRNIRTTHIQLEFAIETFDPNAKKHSDAKKELYKLRAQVEEELEMLKDKMAQALEMFGPTEDALNQAGIEFVHPAEEVEDGNLTRRSKMVEYRAHLAKQEEVKIAAEREELKRSKTLQSQQYRGKTVQQITQ”, the entry is “soluble”; as for “GPGSMSADKVVIIGAGPTGLGAAVRLMELKHANFHLYDGGTVPGGLSRSVLDDKGFLWDMGGHVIFSHYAYFDDVMNLAISDWNTLQRESWVRCSGAWVPYPFQSNIHRLPPEVRDTCLKGIEEAEAARSVAAPEKPQNFAEYVSRHFGEGIAEVFMRPYNFKVWAVPLHLMSTEWVGERVAAVNVERIRENIQLKRDDVGWGPNATFRFPKSGGTGAIYKAVWKMIPEAHKTLGPQCRVTKVNPITKTLTMANGEAVSYDALVSTMPLDDLLLAVAAGVEEDAETASASALKAPRLREIADKMVYSSTHIIGIGVKGCPPPEMRTACWLYFPEDGIPFYRATIFSRYADTNAPEGHWSILLEVSQNVLYKPVNVDTIVEDCIAGLRTVTLLRPEDEIVSRWHHMEKKGYPIPFVGRNELLEEVQPVLRDKYQIYSRGRFGAWRYEVANQDHSLMQGVEAVGHIFYGTDEDTVHKPEKVNTRRGEMRCTWSSTAS”, “soluble”; as for “GPGSMSASGSGVAAIYGRAEEAQNAPVKLQPVPAFELYKAAREEELCSYRSLCRVLCMHSGGKLTKQQRRILEDMREELCLPTERAEAELAAAREDVLVTSVAASGVLKRRQDFFDGVTDVPLDTLSYAESAKDDNNSLYVAQTKVARTEQIVGGVHGRHAAPSKMSIREIHKNLERIGREVAATSSKLLYCTSVVDQQAYRNVLQQKREQLQAMLREVEDAPPDMSGIASVMPSEHVY”, “soluble”.

As for “GPGSMSEEHANDSTLRVKVATINDKGEEVYASSLSHDGTYLAAVFGDGALVIFNPSTFSALDSSAAGKGYDNVPCTAVQWLESSEGGLYRLVSVSSAGGVFIWQWDGAALHRTNRVPEKGNEITCLAVSPECDMFITAGSDRTVRLYDADGTLKANLQMAHDESGVSRLAHTSRIFSVRFVSQGVAVSGGWGGPLQVWDLKANEARVEIRGAQVSSDGIELITGTNCVLVASRRQKEQLQVFDCVSGQELADDSARLSMALGELIPLSSRLCKTSGLVWTITSSPSKVLVTSYSTGQLIASYDSAYDLMNISIFEGLPNNAYISCAEGKLLFATVKQ”, the “soluble on expression in E. coli” value is given as “not soluble”. The same measure for “GPGSMSFYRTKKVIINSLFSDSSWYCTFRFRNPMTSQRRSCHEGIPSGRVTGNSVTLLSEMRENNAIGVEAVGKERKRPDAMTVLSNVFRTNPAALRLHRELTICIASGETERASDLASVLAGLVKRTTRLDDIEQKCAEEGGRSKVPNDPVPVVGEETVEFLTSNVVRGVSSQSRLESIEILHNDAPGAPYLGEKVAEAAEVKDSEPLPFWKNPDALRLTLLESAFEMALADDNENPLQPGSVEADCLEKERMEILDAYLKREGKRWELQKAAVARAIVATVKDLGVVPEDIHAALQAEGELRLNGSDKRFNVLKHCNIIVRGEVPEVMELQMKGTATRNVEASVSQELDVLINRMSSTGTPLSQRDKDLALFELVMSKSKMRYVVGLHRELQVALDTAPALRKLAVEHRAKSGSVLFVERALKMLNKVAPDGSETTAEDVECIDTISTPVLPFTFMLKMCLWFEAPVAM”: “not soluble”; for “GPGSMSHKRPQSSAGESNGAVDLKTPRFDPVSLGLPAEFQLTDYTRLKGCSCKLPQPKLLALLQELSATPGQKDVGMDCSIVPLHHTNSKGEALFLVSTTDFFFPSVSDPFLQGQIGAANVLSDLYSMGIPDCDTMLMLLAASTEMDEHERLITTREIMKGFAERARLATTTVTGGQTVMNPWPLIGGVAMAVVSEAEMVRPTGLLCAGDILVLTKPLGCQVAVNLKQWLLRPSPLYEEAIAGHISPEEIEELYNMATDSMRRLNREGARLMRKHGAHGATDVTGFGILGHANNFGAAQAVGDAPRSLCLVLERLPMFKTAVAASKQMNDKYRLLEGYSAETSGGLLVAFPSTTAAAAFCAELTAVDGGCPSWIVGHVEDRATNAVDGVYARLKDGYEIVEV”: “soluble”; for “GPGSMSLKVNILGHEFSNPFMNAAGVLCTTEEDLRRMTESESGSLIGKSCTLAPRTGNPEPRYFGLPLGSINSMGLPNLGVDFYLSYAAQTHDYSRKPLFLSMSGLSVEESVEMVKKLAPITKEKGTILELNLSCPNVPGKPQVGYDFDTTRTYLQKVSEAYGLPFGVKMPPYFDIAHFDMAAAVLNDFPLVKFITCVNSIGNGLVIDPANETVVIKPKQGFGGLGGKYVLPTALANVNAFFRRCPDKLVFGCGGVYSGEEAFLHILAGASMVQVGTALHDEGPIIFARLNKELQEIMTNKGYKTLDEFRGRVKTMD”: “soluble”. As for “GPGSMSSEHGEILRLWEKLRTIEDRTEEQVAMPSSKKTAYAHKYPMVDKLMHLIEPKFANLVRTPSVSRVVQSMIKYGSAEQVNRLLKWVSKDFSTYATDAYAHFVVCALVRHVPHEAYSKLMTHVIPSVPQLVAHKFGIEVLHSVYSSRWCSPADRSLLLLAVFKDNVAVMRRWPGYPEVEAVLKKNPSLQRRLLSRLFDLSDKLVSQKEAIGYPFVQRLVGTYVRCGTRDEVSELCDTLRPHITAISATREGAPLASLAFSLTEPKKRKEVLHSFNAQLGELCTSKYAAPVIARLFDLLYDAQMLRKYVASDLAEHIGQVVNSPYGYQILMHLLTPHEERKRRFLLPNWQEHNLFSMENKEWNHHTWLTPAFVPETVEICSKPAVTSHLAALPMLVKAFLQYVTDEAHSAKLNRHHAALIAREVLHVVQHEPLYKAAIQLSEDEEHALSKLAPAHGKREREDAAGEVETYAAAPTKCPKRENGSQKAAALTPADKRKKTKVPTVISAAAPLEGRRVKTDAKKRVKKS”, the entry is “soluble”; as for “GPGSMSTSAYRVASLLRQENNKLCSDKEKNTLARLTRDVEAFLDHAADVPPVVMETPYDDGETDLMEVHLSVVAGVLEPCEPASDVTAVDGVFMPTAKNHVAMDRKRVREAQAMLNLLGALSTDCNMPTASVAAATRCRLSLGSGEKADFESDDESIAVFDADELENDTSSSDGESNVHGRPPPRILELN”, “soluble”.

On to “GPGSMVEVPRNFRLLQELEAGEKGTGVSQSVSIGLSGMDDIYMHNWNGTILGPPGTTFENRILSLEIHCDEHYPKRPPNIKFISRVNLPCVSSDGTVDKNKFAVFKTWDRNFTMAHCLMELRREMSLPANKKLPQPEEGSTY”, for which the “soluble on expression in E. coli” value is on record as “soluble”.
